Measured values as given in US20260258143A1 (ODYSSEY THERAPEUTICS, published 2026).
Changes are numbered by the printed parent chain.

Target: T1, human CD25-extracellular domain (CD25-ECD) (human, UniProt P01589 22-240)
T1 construct: also called human CD25-ECD; hCD25 ECD
T1 sequence: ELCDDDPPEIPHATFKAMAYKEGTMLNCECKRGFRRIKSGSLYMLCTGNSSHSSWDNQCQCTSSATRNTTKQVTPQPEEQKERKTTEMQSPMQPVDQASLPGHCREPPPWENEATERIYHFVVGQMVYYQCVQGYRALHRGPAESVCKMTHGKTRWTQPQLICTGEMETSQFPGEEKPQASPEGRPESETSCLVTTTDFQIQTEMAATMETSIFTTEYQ
Test: SPR, V-body on chip, human CD25-ECD 500 nM then IL2-Fc 1000 nM
Experimental: The sensorgrams display IL2-Fc competition: association of human CD25-extracellular domain (ECD) to the V-body followed either by additional binding by IL2-Fc, Indicating an unoccupied epitope (non-overlapping epitopes), or no IL2-Fc binding, indicating epitope blocking (overlapping epitopes), and a buffer control, association and dissociation of human CD25-ECD in the absence of IL2-Fc. Human CD25-ECD was injected (500 nM) under physiological conditions (50 mM HEPES pH 7.4, 150 mM NaCl, 0.1% (w/v) BSA, 0.05% (v/v) Tween20, 25° C.) followed by human IL2-Fc (1000 nM). V-body ODY-83B03Hu1 was identified as a ligand competitive binder. ODY-83B05Hu1 and ODY-83F07Hu1 were identified as non-competitive binders.

B1: ODY-83B03Hu1 (VHH)
VHH: EVQLVESGGGLVQPGGSLRLSCAASGMPLVAMGWYRQAPGKQRELVASISSGGNTGYADSVKGRFTISRDNAKKTVYLQMNSVRPEDTGVYYCNIYRSQVPPTRYSWGQGTQVTVSS
notes: Captured on an SPR chip spot; also called ODY-83B03 humanized VHH
binding result: binds

B2: ODY-83B05Hu1 (VHH)
VHH: EVQLLESGGGLVQPGGSLRLSCAASGFTLDYYAIGWFRQAPGKEREGVLSISSTDGRTYYADSVKGRFTISRDNPKNTVYLQLNSLRPEDTAVYYCAAKRLGPMVHRYSLEVLTPLFLDEYDYWGQGTQVTVSS
notes: Captured on an SPR chip spot; also called ODY-83B05 humanized VHH; ODY-83805Hu1
binding result: binds

B3: ODY-83F07Hu1 (VHH)
VHH: B2 VHH with R107Q
notes: Captured on an SPR chip spot; also called ODY-83F07 humanized VHH
binding result: binds
